Experimental data published in article PMC9635645.

Molecular target: GAL4 DBD-BEAF-32B (Drosophila)
Assay: two-hybrid; GAL4 AD fusions (pOAD) against GAL4 DBD fusions (pOBD2) in yeast; 50 to 100 colonies with both plasmids scored for growth on medium lacking adenine and histidine, with X-α-Gal

Sequence of GAL4 DBD-BEAF-32B (Drosophila) (main, as listed by the source): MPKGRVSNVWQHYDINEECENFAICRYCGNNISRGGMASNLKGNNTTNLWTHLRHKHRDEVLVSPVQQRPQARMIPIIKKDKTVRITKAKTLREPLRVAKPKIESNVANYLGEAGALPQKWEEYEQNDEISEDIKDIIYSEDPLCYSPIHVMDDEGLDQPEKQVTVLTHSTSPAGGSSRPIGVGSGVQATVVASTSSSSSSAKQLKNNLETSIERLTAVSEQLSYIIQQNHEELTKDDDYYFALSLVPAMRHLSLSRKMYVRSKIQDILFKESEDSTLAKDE

GAL4 AD-Pbro BD4–5 (domain or fragment)
% of Y2H colonies expressing the reporter genes: 20%
